What was measured:
Experiment in all cases: IEDB peptide-MHC binding, purified MHC/competitive/fluorescence; filed as Kd, often an IC50 or EC50 that approximates it; ≥ and ≤ were set here for values at or beyond the usual limits of such assays
Conditions in all cases: source organism: Entamoeba histolytica HM-1:IMSS
HLA-A*02:11 = target: HLA-A*02:11
HLA-A*02:12 = target: HLA-A*02:12
HLA-A*02:16 = target: HLA-A*02:16
HLA-A*02:19 = target: HLA-A*02:19
HLA-A*03:01 = target: HLA-A*03:01
HLA-A*11:01 = target: HLA-A*11:01
HLA-A*23:01 = target: HLA-A*23:01
HLA-A*24:03 = target: HLA-A*24:03
HLA-A*30:01 = target: HLA-A*30:01
HLA-A*30:02 = target: HLA-A*30:02
HLA-A*66:01 = target: HLA-A*66:01
HLA-A*68:02 = target: HLA-A*68:02
HLA-B*07:02 = target: HLA-B*07:02
HLA-B*14:02 = target: HLA-B*14:02
HLA-B*15:17 = target: HLA-B*15:17
HLA-B*18:01 = target: HLA-B*18:01
HLA-B*27:03 = target: HLA-B*27:03
HLA-B*27:05 = target: HLA-B*27:05
HLA-B*39:01 = target: HLA-B*39:01
HLA-B*40:01 = target: HLA-B*40:01
HLA-B*44:02 = target: HLA-B*44:02
HLA-B*46:01 = target: HLA-B*46:01
HLA-B*51:01 = target: HLA-B*51:01
HLA-B*58:01 = target: HLA-B*58:01

How did the Kd (HLA-A*02:11) turn out when EVRKAIEFV was run?
The Kd was no less than 20 µM.

What about the Kd (HLA-A*02:12) of the same sequence?
The Kd was no less than 20 µM.

And the Kd (HLA-A*02:16)?
Its Kd is no less than 20 µM.

What about the Kd (HLA-A*02:19) of the same sequence?
Its Kd is no less than 20 µM.

And the Kd (HLA-A*03:01)?
The Kd was no less than 20 µM.

What about the Kd (HLA-A*11:01) of the same sequence?
The Kd was no less than 5 µM.

And the Kd (HLA-A*23:01)?
The Kd was 1.3 µM.

What about the Kd (HLA-A*24:03) of the same sequence?
Its Kd is no less than 20 µM.

What about the Kd (HLA-A*30:01) of the same sequence?
The Kd was no less than 5 µM.

What about the Kd (HLA-A*30:02) of the same sequence?
The Kd was no less than 5 µM.

What about the Kd (HLA-A*66:01) of the same sequence?
Its Kd is 0.279 µM.

What about the Kd (HLA-A*68:02) of the same sequence?
Its Kd is no more than 0.001 µM.

What about the Kd (HLA-B*07:02) of the same sequence?
Its Kd is no less than 5 µM.

And the Kd (HLA-B*14:02)?
The Kd was no less than 5 µM.

What about the Kd (HLA-B*15:17) of the same sequence?
The Kd was no less than 20 µM.

What about the Kd (HLA-B*18:01) of the same sequence?
The Kd was no less than 20 µM.

And the Kd (HLA-B*27:03)?
The Kd was no less than 20 µM.

And the Kd (HLA-B*27:05)?
Its Kd is no less than 5 µM.

What about the Kd (HLA-B*39:01) of the same sequence?
The Kd was no less than 20 µM.

And the Kd (HLA-B*40:01)?
The Kd was no less than 5 µM.

And the Kd (HLA-B*44:02)?
Its Kd is no less than 5 µM.

And the Kd (HLA-B*46:01)?
The Kd was no less than 20 µM.

What about the Kd (HLA-B*51:01) of the same sequence?
Its Kd is no less than 20 µM.

And the Kd (HLA-B*58:01)?
Its Kd is no less than 5 µM.
